Data: ChEMBL document CHEMBL2074128, “Cytotoxicity of antiviral nucleotides adefovir and cidofovir is induced by the expression of human renal organic anion transporter 1” (J Am Soc Nephrol, 2000)

Tests used:
[1] = substrate: Nc1ncnc2c1ncn2CCOCP(=O)(O)O; assay: TP_TRANSPORTER: uptake in OAT1-expressing CHO cells; format: functional, cell-based
[2] = substrate: Nc1ccn(C[C@@H](CO)OCP(=O)(O)O)c(=O)n1; assay: cells, lysate or membranes named

B1: Solute carrier family 22 member 6 (Homo sapiens) (protein)
chain: MAFNDLLQQVGGVGRFQQIQVTLVVLPLLLMASHNTLQNFTAAIPTHHCRPPADANLSKNGGLEVWLPRDRQGQPESCLRFTSPQWGLPFLNGTEANGTGATEPCTDGWIYDNSTFPSTIVTEWDLVCSHRALRQLAQSLYMVGVLLGAMVFGYLADRLGRRKVLILNYLQTAVSGTCAAFAPNFPIYCAFRLLSGMALAGISLNCMTLNVEWMPIHTRACVGTLIGYVYSLGQFLLAGVAYAVPHWRHLQLLVSAPFFAFFIYSWFFIESARWHSSSGRLDLTLRALQRVARINGKREEGAKLSMEVLRASLQKELTMGKGQASAMELLRCPTLRHLFLCLSMLWFATSFAYYGLVMDLQGFGVSIYLIQVIFGAVDLPAKLVGFLVINSLGRRPAQMAALLLAGICILLNGVIPQDQSIVRTSLAVLGKGCLAASFNCIFLYTGELYPTMIRQTGMGMGSTMARVGSIVSPLVSMTAELYPSMPLFIYGAVPVAASAVTVLLPETLGQPLPDTVQDLESRWAPTQKEAGIYPRKGKQTRQQQEHQKYMVPLQASAQEKNGL
Km [1]: 23.8 µM | Km [2]: 58 µM
